Data on four molecules can be found in publication PMC10711550, “Molecular basis for SOX2-dependent regulation of super-enhancer activity” (Nucleic Acids Research, 2023).

Holding throughout (details): both partners purified
Experiment [1] has as its target T1, DNA-binding domain of SOX2 (aa 39-127) (human, UniProt P48431 39-127).
T1 construct: also called SOX2DBD; DBDSOX2; source: E. coli BL21(DE3), purified from the supernatant (HisTrap HP, Superose 6 Increase)
The experiment in a line: BLI; SOX2DBD or SOX2CTD with KIX or bromodomain; who was immobilised not given; global fit to a 1:1 binding model (BLItz Pro v.1.2.1.5).

Experiment [2] deals with T2, C-terminal domain of SOX2 (aa 150-317) (human, UniProt P48431 150-317).
T2 construct: also called SOX2CTD; CTDSOX2; source: E. coli BL21(DE3), purified from the supernatant (HisTrap HP, Superose 6 Increase)
T2 sequence (P48431 150-317): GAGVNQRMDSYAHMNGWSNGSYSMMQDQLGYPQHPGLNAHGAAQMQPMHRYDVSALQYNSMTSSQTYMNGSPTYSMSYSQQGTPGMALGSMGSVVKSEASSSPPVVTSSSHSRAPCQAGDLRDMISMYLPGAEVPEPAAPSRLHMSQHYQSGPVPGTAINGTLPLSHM
The experiment is described as above.

The target in experiment [3] is T3, full-length human SOX2 (recombinant, N-terminal His-tag, 327 amino acids) (human, UniProt P48431 1-317).
T3 construct: human SOX2, full length, 317 amino acids; with the tag peptide 327 amino acids; Immobilised on an AR2G chip in BLI
T3 sequence (P48431 whole entry): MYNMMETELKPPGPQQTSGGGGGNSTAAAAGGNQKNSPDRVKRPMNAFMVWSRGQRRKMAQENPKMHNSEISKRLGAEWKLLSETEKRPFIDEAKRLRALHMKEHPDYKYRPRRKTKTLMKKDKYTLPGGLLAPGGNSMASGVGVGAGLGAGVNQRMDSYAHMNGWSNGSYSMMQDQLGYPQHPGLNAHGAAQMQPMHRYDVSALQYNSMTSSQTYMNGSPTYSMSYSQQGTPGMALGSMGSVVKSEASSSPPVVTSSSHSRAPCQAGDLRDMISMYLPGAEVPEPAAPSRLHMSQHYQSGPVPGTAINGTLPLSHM
The experiment in a line: BLI; 0.2 mg/ml SOX2 immobilised on an AR2G chip, quenched with 1 M ethanolamine; p300 (0-400 nM), KIX (0-43 uM), fragments (3 uM KIX and BR, 0.8 uM KB) in PBS; global fit, 1:1 binding model; BLItz.

The target in another experiment is T4, full-length human SOX2 (human, UniProt P48431 1-317).
T4 construct: human SOX2, UniProt P48431, 317 amino acids; with the N-terminal His-tag peptide the recombinant protein has 327 amino acids; cloned into the pVFT1S plasmid
T4 sequence (P48431 whole entry): as above
The experiment in a line: BLI; SOX2 (0.2 mg/ml) immobilised on an AR2G chip, quenched with 1 M ethanolamine; p300 fragments in PBS; global fit to a 1:1 binding model (BLItz Pro v.1.2.1.5).

T1 sequence (P48431 39-127): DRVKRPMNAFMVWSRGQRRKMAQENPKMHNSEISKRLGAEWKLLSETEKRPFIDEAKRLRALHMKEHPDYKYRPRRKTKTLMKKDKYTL

B1: p300 KIX domain (aa 566-646) (domain or fragment)
chain: not shown
notes: human p300, UniProt Q09472, KIX domain, aa 566-646; also called KIXp300; source: E. coli BL21(DE3), purified from the supernatant (HisTrap HP, Superose 6 Increase)
As for B1, the koff in experiment [1] worked out at 0.0469 s⁻¹; in experiment [2], 0.0849 s⁻¹. In addition, the kon was 5060 M⁻¹ s⁻¹ in experiment [1] and 1720 M⁻¹ s⁻¹ in experiment [2].

B2: p300 bromodomain (aa 1067-1139) (domain or fragment, human, UniProt Q09472 1067-1139, looked up)
chain: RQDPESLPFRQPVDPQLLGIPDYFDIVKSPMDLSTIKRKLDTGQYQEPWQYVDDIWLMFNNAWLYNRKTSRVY
notes: human p300, bromodomain, residues 1067-1139; also called p300BD; BD; source: E. coli BL21(DE3), purified from the supernatant (HisTrap HP, Superose 6 Increase)
In the case of B2, in experiment [3], the “fold higher KD than p300KIX” value turned out to be 20.1 fold.

B3: p300 bromodomain (aa 1067-1139) (domain or fragment, human, UniProt Q09472 1067-1139, looked up)
chain: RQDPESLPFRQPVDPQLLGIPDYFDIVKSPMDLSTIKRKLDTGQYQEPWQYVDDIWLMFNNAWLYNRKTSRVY
notes: human p300, UniProt Q09472, bromodomain, aa 1067-1139; also called BD; p300BD; source: E. coli BL21(DE3), purified from the supernatant (HisTrap HP, Superose 6 Increase)
In experiment [1], B3 returned a koff of 0.0265 s⁻¹ and a kon of 172 M⁻¹ s⁻¹. Further, the koff in experiment [2] was determined as 0.0951 s⁻¹. In the experiment with full-length human SOX2, this molecule gave a Kd of 54 µM, a koff of 0.00606 s⁻¹ and a kon of 112 M⁻¹ s⁻¹.

B4: p300 KIX-BD fragment (aa 566-1139) (domain or fragment)
chain: not shown
notes: human p300, KIX + bromodomain, residues 566-1139; also called p300KB; KB; source: E. coli BL21(DE3), purified from the supernatant (HisTrap HP, Superose 6 Increase)
With B4, in experiment [3], the “fold lower KD than p300BD” value was determined as 834 fold and the “fold lower KD than p300KIX” value came to 41.4 fold.
